For the test, the target named is recombinant human RANTES (huRANTES, Peprotech) (human) (UniProt P13501). Description: cell-based or functional assay.

The values that follow come from patent US20120201826A1.

Chain of recombinant human RANTES (huRANTES, Peprotech) (human) (P13501 24-91): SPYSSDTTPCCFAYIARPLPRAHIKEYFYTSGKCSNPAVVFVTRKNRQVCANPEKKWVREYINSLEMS

B1: A5 scFv (scFv, part only; not given: linker and tags, part only)
scFv, part: QVQLVQSGAEVKKPGASVKVSCKVSGYALSELSIHWVRQAPGKGLEWMSYIDPEDGEPIYAQKFQGRATMTEDSSTDTAYMEMGSLTSDDTAVYYCAGVTGSTSDAFDLWGRGTLVTVSSSYVLTQDPSVSVAPGQTARITCGGANLWGLGVHWYQQKSGQAPVLVVSDNSDRASGIPERFSGSNSGTTATLTLSRVEVGDEADYYCQVWDSSSDHWVFGGRTKLTVL
Turning to B1, the Chemotaxis IC50 (nM); L1.2 cells expressing hCCR5, 1 nM huRANTES; scFv format came to 21 nM.
